Measurements reported in publication PMC6635489.

B1: GluK3: T249A/T397A (protein)
parent chain: MTAPWRRLRSLVWEYWAGFLVCAFWIPDSRGMPHVIRIGGIFEYADGPNAQVMNAEEHAFRFSANIINRNRTLLPNTTLTYDIQRIHFHDSFEATKKACDQLALGVVAIFGPSQGSCTNAVQSICNALEVPHIQLRWKHHPLDNKDTFYVNLYPDYASLSHAILDLVQSLKWRSATVVYDDSTGLIRLQELIMAPSRYNIRLKIRQLPIDSDDSRPLLKEMKRGREFRIIFDCSHTMAAQILKQAMAMGMMTEYYHFIFTTLDLYALDLEPYRYSGVNLTGFRILNVDNAHVSAIVEKWSMERLQAAPRAESGLLDGVMMTDAALLYDAVHIVSVCYQRASQMTVNSLQCHRHKPWRFGGRFMNFIKEAQWEGLTGRIVFNKTSGLRTDFDLDIISLKEDGLEKVGVWSPADGLNITEVAKGRGPNVTDSLTNRSLIVTTLLEEPFVMFRKSDRTLYGNDRFEGYCIDLLKELAHILGFSYEIRLVEDGKYGAQDDKGQWNGMVKELIDHKADLAVAPLTITHVREKAIDFSKPFMTLGVSILYRKPNGTNPSVFSFLNPLSPDIWMYVLLAYLGVSCVLFVIARFSPYEWYDAHPCNPGSEVVENNFTLLNSFWFGMGSLMQQGSELMPKALSTRIIGGIWWFFTLIIISSYTANLAAFLTVERMESPIDSADDLAKQTKIEYGAVKDGATMTFFKKSKISTFEKMWAFMSSKPSALVKNNEEGIQRTLTADYALLMESTTIEYITQRNCNLTQIGGLIDSKGYGIGTPMGSPYRDKITIAILQLQEEDKLHIMKEKWWRGSGCPEEENKEASALGIQKIGGIFIVLAAGLVLSVLVAVGEFIYKLRKTAEREQRSFCSTVADEIRFSLTCQRRLKHKPQPPMMVKTDAVINMHTFNDRRLPGKDSMSCSTSLAPVFP
B2: GluK3: T397A (protein)
parent chain: B1 parent chain
B3: GluK3: S404A (protein)
parent chain: B1 parent chain
B4: GluK3: T249A (protein)
parent chain: B1 parent chain
B5: GluK3: T249A/S404A (protein)
parent chain: B1 parent chain
B6: GluK3: T397A/S404A (protein)
parent chain: B1 parent chain
B7: GluK3: N721A glycan knockout (Methods: T723A) (protein)
parent chain: B1 parent chain

assay: whole-cell dose-response, 30 µM-30 mM glutamate; settings: glycan lost; control: wild type GluK3

Protein | other: glutamate EC50 of channel current, EC50
B1 | decreases, 6.5 vs 9.5
B2 | decreases, 3.7 vs 9.5
B3 | no change, 10.3 vs 9.5
B4 | decreases, 7.2 vs 9.5
B5 | decreases, 5.3 vs 9.5
B6 | decreases, 5.7 vs 9.5

assay: whole-cell patch clamp, 30 mM glutamate, HEK293; settings: glycan lost; control: wild type GluK3

Protein | other: desensitization time constant, other: mean weighted tau_des
B1 | no change, 4.3 ± 0.2 vs 3.8 ± 0.5
B2 | no change, 3.2 ± 0.2 vs 3.8 ± 0.5
B3 | no change, 4.5 ± 0.3 vs 3.8 ± 0.5
B4 | no change, 3.7 ± 0.4 vs 3.8 ± 0.5
B5 | no change, 4.1 ± 0.2 vs 3.8 ± 0.5
B6 | no change, 4.0 ± 0.4 vs 3.8 ± 0.5

assay: surface biotinylation, anti-GluR6/7 blot, HEK293; settings: glycan lost; control: wild type GluK3

Protein | localisation_or_trafficking
B1 | no change
B2 | no change
B7 | abolishes
B3 | no change
B4 | no change
B5 | no change
B6 | no change

assay: two-pulse 30 mM glutamate protocol, whole-cell patch clamp; settings: glycan lost; control: wild type GluK3

Protein | other: time constant of recovery from desensitization, other: tau_rec
B2 | no change, 0.8 vs 0.9
B3 | decreases, 0.5 vs 0.9
B5 | decreases, 0.3 vs 0.9
B6 | decreases, 0.5 vs 0.9
